The text below walks through data of publication PMC9811624 (The EMBO Journal, 2022).

Read-outs that look alike come from different tables or passages of the source.

In general, Kd refers to the equilibrium constant for the complex coming apart. Low values mean tighter binding, high ones weaker binding. For orientation: koff means a measure of how fast the partners let go of each other. High values mean fast dissociation, low ones slow dissociation. Usually kon stands for a measure of how fast the partners come together. A high value points to fast association.

Assay [1] deals with MBP-OsCRT3 (Oryza sativa (rice)). The assay is described as follows: SPR. On the technique in general: SPR reads the build-up and loss of mass on a sensor chip optically.
Assay [2] deals with MBP-OsCBL8 (Oryza sativa (rice)) (UniProt Q3HRN9). The assay is described as follows: SPR.
Assay [3] concerns the target MBP-OsCRT3 (Oryza sativa (rice)). The assay is described as follows: SPR. This is another data set of the same source.
Assay [4] has as its target MBP-OsCBL8 (Oryza sativa (rice)) (UniProt Q3HRN9). Put plainly: SPR. The source holds these as a separate data set.
Another assay concerns the target T1, GST-OsCIPK7 (Oryza sativa (rice), UniProt Q75GK4 1-447).
T1 sequence: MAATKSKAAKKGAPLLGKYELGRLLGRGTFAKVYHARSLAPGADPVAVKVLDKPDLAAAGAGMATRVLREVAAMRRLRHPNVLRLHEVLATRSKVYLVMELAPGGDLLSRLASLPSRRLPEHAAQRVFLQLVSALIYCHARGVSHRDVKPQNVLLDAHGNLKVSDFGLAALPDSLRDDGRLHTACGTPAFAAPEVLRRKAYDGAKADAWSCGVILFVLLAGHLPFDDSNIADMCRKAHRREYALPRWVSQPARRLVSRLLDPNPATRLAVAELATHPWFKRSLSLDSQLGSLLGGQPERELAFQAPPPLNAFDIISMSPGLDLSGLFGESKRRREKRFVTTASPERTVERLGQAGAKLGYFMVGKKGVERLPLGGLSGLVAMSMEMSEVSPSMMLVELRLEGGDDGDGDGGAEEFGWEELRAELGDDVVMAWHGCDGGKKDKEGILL
Put plainly: pull-down.

For GST-OsCIPK7-C (domain or fragment), the Kd in assay [1] came to 6490 nM; in assay [2] it was 340 nM; in assay [3], 920 nM; in assay [4] it was 390 nM. Also, the koff in assay [1] was determined as 0.00157 s⁻¹; in assay [3] it was 0.00077 s⁻¹. Also, the kon in assay [1] was 256 M⁻¹ s⁻¹; in assay [3], 684 M⁻¹ s⁻¹.

B1: MBP-OsCBL8 (natural protein)
chain: MGCVSSKQFKRAAQHEDPAILAKETTFSVSEVEALFELFKKISHSIFRDGLIHKEEFQLALFRNSNKKNLFANRIFDLFDLKRNGVIDFGEFVRSLSIFHPETPLGDKIAFAFRLYDLRGTGCIEREELHEMVLALLNESDLFLSEEAVEQIVDQTFKQADLNDDGKIDPDEWKTFASKNPALLKNMTLPYLKDITMVFPSFILNSEVCEEEL
Take B1: the binding result with GST-OsCIPK7 is “binds”.

B2: MBP-OsCBL7 (natural protein)
chain: MGCISSKQFKRAAEHEDPAILAKETTFSVSEVEALYELFKKISHSIFKDGLIHKEEFQLALFRNSNKKNLFADRIFDLFDLKRNGVIDFGEFVRSLNIFHPETPLAEKIAFAFRLYDLRGTGYIEREELYEMVLAILNESDLLLSDDAVEQIVDQTFKQADLNSDGKIDPDEWKAFASKNPALLKNMTLPYLKDITMAFPSFVLNSGVDDEEL
B2: the binding result with GST-OsCIPK7 was “binds”.
